Changes are numbered by the printed parent chain. In names and notes the source's numbering stands.
B1: feline IgG1a Fc mutant S428L, S434F (antibody, part only; not given: Variable domains, not shown: another chain or arm of the molecule; small tags and cut ends)
constant: ASTTAPSVFPLAPSCGTTSGATVALACLVLGYFPEPVTVSWNSGALTSGVHTFPAVLQASGLYSLSSMVTVPSSRWLSDTFTCNVAHPPSNTKVDKTVRKTDHPPGPKPCDCPKCPPPEMLGGPSIFIFPPKPKDTLSISRTPEVTCLVVDLGPDDSDVQITWFVDNTQVYTAKTSPREEQFNSTYRVVSVLPILHQDWLKGKEFKCKVNSKSLPSPIERTISKAKGQPHEPQVYVLPPAQEELSRNKVSVTCLIKSFHPPDIAVEWEITGQPEPENNYRTTPPQLDSDGTYFVYSKLSVDRSHWQRGNTYTCSVLHEALHFHHTQKSLTQSPGK
B2: feline IgG1a Fc mutant Q311K, S428Y (antibody, part only; not given: Variable domains, not shown: another chain or arm of the molecule)
constant: B1 constant with Q197K, L316Y, F322S
B3: feline IgG1a Fc mutant S428M, S434Y (antibody, part only; not given: Variable domains, not shown: another chain or arm of the molecule; small tags and cut ends)
constant: B1 constant with L316M, F322Y
B4: feline IgG1a Fc mutant S428M, S252Y (antibody, part only; not given: Variable domains, not shown: another chain or arm of the molecule; small tags and cut ends)
constant: B1 constant with S138Y, L316M, F322S
B5: feline IgG1a Fc mutant S428Y, S434W (antibody, part only; not given: variable domains and light chain, not shown: another chain or arm of the molecule; small tags and cut ends)
constant: B1 constant with L316Y, F322W
B6: feline IgG1a Fc mutant S428M, S434W (antibody, part only; not given: Variable domains, not shown: another chain or arm of the molecule; small tags and cut ends)
constant: B1 constant with L316M, F322W
B7: feline IgG1a Fc mutant S428Y, S434Y (antibody, part only; not given: variable domains and light chain, not shown: another chain or arm of the molecule; small tags and cut ends)
constant: B1 constant with L316Y, F322Y
B8: feline IgG1a Fc mutant S428M, S434F (antibody, part only; not given: variable domains and light chain, not shown: another chain or arm of the molecule; small tags and cut ends)
constant: B1 constant with L316M
B9: feline IgG1a Fc mutant S428Y, S434F (antibody, part only; not given: Variable domains, not shown: another chain or arm of the molecule; small tags and cut ends)
constant: B1 constant with L316Y
B10: feline IgG1a Fc mutant S428L, S434W (antibody, part only; not given: Variable domains, not shown: another chain or arm of the molecule; small tags and cut ends)
constant: B1 constant with F322W

These binders were tested against Feline FcRn complex (FcRn-alpha subunit and beta-microglobulin) (feline) (assay: SPR (Biacore), feline FcRn captured on SA chip, IgG flowed over, pH 6).

Binder | Kd
B1 | 1.39 nM
B2 | 3.31 nM
B3 | 0.888 nM
B4 | 5.12 nM
B5 | 1.39 nM
B6 | 0.937 nM
B7 | 1.12 nM
B8 | 1.21 nM
B9 | 1.57 nM
B10 | 1.02 nM

What follows are binders tested against Feline FcRn complex (FcRn-alpha subunit and beta-microglobulin) (feline) (assay: SPR (Biacore), feline FcRn captured on SA chip, IgG flowed over, pH 7.4).

Binder | Kd
B1 | 46.4 nM
B2 | 35.9 nM
B3 | 25.2 nM
B4 | 124 nM
B5 | 24.1 nM
B6 | 25.3 nM
B7 | 24.1 nM
B8 | 38.2 nM
B9 | 39.7 nM
B10 | 41.8 nM

Source: patent publication US20240400708A1
